# Experimental data: a protein production outcome set (Wang et al. 2014)
# Test: label from the status in PepcDB records
row,Sequence,protein production
1,MLLQANRGLGLSAHIIDHCNLILKFPEGTNSTWYNAQFKVFEALEFKYNVCEAVLLWEQYRNMTTVLTREYLDVRPDGWLDYAAMRIAQLGADKCYNRTLCEEHLNVILPAKPPFHPRQFHKCAVVGNSGDLLKTEFGEEIDSHDAVFRDNEAPVNEKYAKYVGVKRDFRLVVRGAARNMIKILNGSDNEVLIIKSVTHRDFNEMIKRIPNPVYLFQGIVLRRGAKGTGMKSIELALSMCDIVDIYGFTVDPGYTEWTRYFSTPRKGHNPLQGRAYYQLLECLGVQITC,failed
2,MLLRRRLFVLCILILTITAVQSFVHVLSGDGLSALDLALTAVFVPLAAWLAQSFCTLTAGALMIATQRFSWRRRRDELADIASGLVDSLPRVAIVMPVYNEDSGRVFAGVAAMRDELRALGVAKRFDVFILSDSTDGDNWLAEEEAWDSERHRVGDSPRLFYRRRFRNIKRKTGNIGQFVERHGAAYGYMVVLDADSLMSGEAIWVLTRRMDAERRTALIQAPPKLIMGDTPFSRMLQFAGDVYGPLSSAGLAFWAGGEGNYWGHNAIIRVDAFAACCGLPALPGRAPLGGDILSHDFVEAALLRRAGWKVRIAWDLGGSYEEPPPTMEDFMVRDRRWCQGNMQHGRILFARGLHGVSRSHLLIGIMSYVTSPLWLIFLILSGMQAWTLARAKAVYFQQGVPWATWPISREEEAAYLLAGTLGMLFLPKIWGLLLAIFHGPTRRAHGGGLALVGGFFLENLISALVAPIMMIRHSQFVVSILTGAKVDWKPQRRTADKGNLRVALASYKDVMVIGIAAVAFVLWAAPSLGVWLSPVLAGLLGAPFLAMALGDPDLGAALRRRGLLVIPEEITPPSVLTRMEERLAARPPTAEAPESRFSRVILDPGTNARHRALIQATGEAPTAPVEVMERAVGLAIHLGPEALGKDERKALLECPERLEQLHVACWARRLEDRGGVAPG,failed
3,MLLSFFLINSNGEVIIEKSWKTEHTRRVCDLFWQEILKVSSPEELAPLLHFPKFTIVHIYSCGVFLVATVRKTLQSTFALELLHHLVDTFVDYFGEFNEHAIKENFVTVYEIIEEVLDHGFPFTVDIASLKELVPPPSLLSRVLGSVTGSSLSLKDISDWNSRKKVSWRNPNIRYAHNEIFVDIVEEVSVVLNSKGQCIHSGISGSIVVNCRLSGMPELALHLNESSIAKHSFVHPCVRYGRFIREGIISFVPPDGVFQLLKYQTWKAPYIPVTLEPQYSVDKERKHGRLQLTLDIRGCGGKPCEEMMISIPFHHATNITNLNVTVGTVRYDSQIQVCPI,failed
4,MLLSKKSEYKTLSTVEHPQYIVFCDFDETYFPHTIDEQKQQDIYELEDYLEQKSKDGELIIGWVTGSSIESILDKMGRGKFRYFPHFIASDLGTEITYFSEHNFGQQDNKWNSRINEGFSKEKVEKLVKQLHENHNILLNPQTQLGKSRYKHNFYYQEQDEINDKKNLLAIEKICEEYGVSVNINRCNPLAGDPEDSYDVDFIPIGTGKNEIVTFMLEKYNLNTERAIAFGDSGNDVRMLQTVGNGYLLKNATQEAKNLHNLITDSEYSKGITNTLKKLIGFMRRK,not failed
5,MLLSPNLLAEGQSRYISDNVFLYLLNGPGTDYRILGSIEAGQPITLQGETQGDYSKIVDHKGREGWVQTNLISSTPSFREQVSTLTNELNEAKAKLAEVLNSTGNQTDEVAELKAQLAEAQTMLAKANQERENLKMAVDHSAQETQFALWREGGIIAAAGLVVGVILVYLPRPQRRNKKRWMLEHHHHHH,failed
6,MLLSYLIYGLRNGFMVTLGGIAGFVVGAIAAFMAVPLVSGWVTDSGWRLTATVGAAVVLIALGHGLGTMIGRKVRHTVRIKPLHAVDRLIGGVVSVVVAALVMSMLAFSISSLGVPFVSQQLAESRVIRYIDDLTPTPVKSTMAQLRSTVIGDGIPKLIEGIGPVTPVPVPNESTDTPALNQAAESVLKIAGTAFECGQNQTGSGFVVSPGRVVTNAHVVAGVSQPVVEVPDGGALPGRVVYFDSQRDIAVLAVDGLQSSPLPLSADLPAGSSAAFAGYPHGGPFQSKPATVQGISTILVPDIYGNNPSPEQVYKLAGDVQPGNSGGPLLTMQGQVAGLIFAKTTTDAALGFALTMADLEPVAAQAPGLSNPVSAGQCTRK,failed
